The data set in a line: soluble on expression in E. coli; label from the status in PepcDB or PDB records.
With “MSTTPGTPHGVTHSLMEQGWYWADADRSAVSKALSDQPDGSFIVRNASTPGDYTLSVKFAAQVKLLRIVVKDGKCGFNTDSLTHDSVVRLIEFHRNISLNIFNDALDVRLLYPVSVRRNSQNGKPFFKKGQLQQRMILSAKNDHDWRERLEMENLRAVHLAFERGAKLYDSAHQEMERAESLYHALNQSVRDNEIKLGKLNNLLEAETDVVTQIQGSQTTSEMLKGAFANNKTFVEESIRRINTELTSSKDKKKTLSGILDEIAMKRSNSKTRLCKLMELRSAVYDKMEPALCSRMAAMLDAGAEMINSEPTKVTQLLVDMELKWTPAQYLMCGTSKENAANALIHARYRIAQLDKAVGLKREPQDGIFLIRGSSSHGDKLVLSVLHGERVSHCLIEQNEEGWGFEHSNVYLTTISDFVRYYSHFSLETHADAIKTPLRTPAFDAVTSDTSKPLRNGPGQVFTALPISRKYMEKALLTDDPTKPPESPEPRPDSWDSPSPDTPSSSDSRLVHPTTLPKSIPE”, the “soluble on expression in E. coli” value is listed as “not soluble”. To “MGSDKIHHHHHHMDKPFRRILLIKMRFHGDMLLTTPVISSLKKNYPDAKIDVLLYQDTIPILSENPEINALYGIKNKKAKASEKIANFFHLIKVLRANKYDLIVNLTDQWMVAILVRLLNARVKISQDYHHRQSAFWRKSFTHLVPLQGGNVVESNLSVLTPLGLDSLVKQTTMSYPPASWKRMRRELDHAGVGQNYVVIQPTARQIFKCWDNAKFSAVIDALHARGYEVVLTSGPDKDDLACVNEIAQGCQTPPVTALAGKVTFPELGALIDHAQLFIGVDSAPAHIAAAVNTPLISLFGATDHIFWRPWSNNMIQFWAGDYREMPTRDQRDRNEMYLSVIPAADVIAAVDKLLPSSTTGTSL” belongs “not soluble”. The value for “MSLLFYRPLASIQALTFDLDDTLYDNRPVIKQVEEKVTEWLLSEHPITATRPLAWWLAMKRDIARRFPEQCHDVSQWRYLQVQHGLLELGYAQPEAEQAASETLEQVMRWRNQVDVPAETHRVLAQLAAKVPLIAITNGNVQIEKIGLSGYFQTVLRAGPDGRAKPYPDLFAQAAQQLQLEPRSILHVGDHLQTDVLGARQNGFQACWFNDQGQSIRRLAKASVLPDVEIERLSELLLIVNEGHHHHHH” was “soluble”; that for “MANAYKQAGVDIEAGYEAVSRMKKHVQTTMRKEVLGGLGGFGGMFDLSKFALEEPVLVSGTDGVGTKLMLAFMADKHDTIGIDAVAMCVNDIVVQGAEPLFFLDYIACGKAEPSKIENIVKGISEGCRQAGCALIGGETAEMPGMYSTEEYDLAGFTVGIVDKKKIVTGEKIEAGHVLIGLASSGIHSNGYSLVRKVLLEDGELSLDRIYGRLELPLGEELLKPTKIYVKPILELLKNHEVYGMAHITGGGFIENIPRMLPEGIGAEIELGSWKIQPIFSLLQEVGKLEEKEMFNIFNMGIGMVVAVKEEDAKDIVRLLEEQGETARIIGRTVQGAGVTFNGGKAL” was “soluble”. For “MFVDQVKVYVKGGDGGNGMVAFRREKYVPKGGPAGGDGGKGGDVVFEVDEGLRTLMDFRYKKHFKAIRGEHGMSKNQHGRNADDMVIKVPPGTVVTDDDTKQVIADLTEHGQRAVIARGGRGGRGNSRFATPANPAPQLSENGEPGKERYIVLELKVLADVGLVGFPSVGKSTLLSVVSSAKPKIADYHFTTLVPNLGMVETDDGRSFVMADLPGLIEGAHQGVGLGHQFLRHIERTRVIVHVIDMSGLEGRDPYDDYLTINQELSEYNLRLTERPQIIVANKMDMPEAAENLEAFKEKLTDDYPVFPISAVTREGLRELLFEVANQLENTPEFPLYDEEEL”, the “soluble on expression in E. coli” value is “soluble”. Turning to “MEKSLKNYKTLQQLFVRRLKAGVRPVDADEHTVVSPVDAVIEDMGTIRENCEMIVKGKPYSIAEMLGSVEAAQPYVNGFFFILYLSPSHYHRIHSPISGVIEKQWALGRKSYPVNRLGLKYGRRPLEKNYRLITEVTAGGKRLAIVKIGAMFVNSIELTHEGEQLVKGEEMAYFSFGSTVVLLFERGSFAPDPRIVAPMPIKVGERLGYWCEAHER”, the “soluble on expression in E. coli” value is listed as “not soluble”.

In the case of “MSLGDLLTFATGHKYYGINFDEDERGWYYREWAPEAYEVYLTGDFNDWDRRSHPLTRNEFGVWQIFLPYDLYQKRFVHKSKIKVQIVGANGTHDRIPAYITRVVQDTETTDFSGQLWFPQKPFEWTDRDFNLRKIKNPIIYEAHVGMAQEKEGVGTYREFADKIVPRIRQMGYNSIQLMAVMEHPYYGSFGYHVSNFFAPSSRFGTPEDLKYLVDRAHKFGLAVIMDVVHSHAVKNLSEGLNEFDGSDHQYFHPGDRGYHTGWDSKLFDYGKLEVKRFLLSNLRYWLEEYHFDGFRFDGVTSMLYFDHGMKTFDSYDTYFKGGVDFDAVTYLQLANEVTHRYLKDSITIAEDVSGMPGLSRSIRDGGVGFDYRLAMGIPDFWIKYLKHLQDEQWNIYEMWSTLTNRRYKEKTIAYAESHDQAMVGDKTIAFWLMDKEMYFHMQVDDPNPVIDRGIAIHKLLRLFTFALGGEGYLNFMGNEFGHPEWIDFPREGNGWSYQYARRQWSLVDNPKLKYQYLGAFDEAMMRLVRKTRLLAAEPAQQLNMDDHNKVIIFERNNMIFVFNFSVSNSVFDYKFKSFAPGTFEIVLNSDDTRFGGHGRVDDTLEYHTNTEGQLSIYTPNRSVLVFQRKEASEGHHHHHH”, the “soluble on expression in E. coli” value was “not soluble”.

Take “YFSAICQARKNVYIETPYFIPDESLLKAIKSAALSGVDVRIIFPKIADHKIVNIASYSYFEEILRAGGKVYLYNKGFIHSKVVIIDDKIASAGTANMDLRSFMLNFEVNAFIYDEEVIRVMTDDFFEDLSYCEELNLEVFKNRNIIQKIKESVARLFSPIL”: the “soluble on expression in E. coli” value is “soluble”. To “MARKGTTPWHESREMHTQDDADSSLKEQEKTTNKKEQTTAPPEKKLPTIPGKLPKRSVEPPEESRDQKPAGNKPNLKKSPSNPRIPPGGSHPRKKPKVPNRDPSGKHVNSDKKKPSAEAHDKESLSSPPQTDAGKETTKESASTYGASWKSSKPTLKADLKAMEDYITKMPNFHGYICREDAAQILKHPGDWLVRLSVPPSNDQDKKNKAQNLAKSVERTKGHKSTMQKVFVISVLCKGKALSPAKSNNRNLVIKTNNGKFSIDSVHWLVKLKDLFSHYQGTSAVHKNGEFQLLNPISLSKWEFQHEDTELLAKKLGEGAFGEVRVGRLTTKDPKKKLVEVAVKMLKSSADSVTRDQVEELLHETRIMRKLDHPNVLRSYGVAVLREPLYLMIELCSNGALREYLKENHKTITLADKINFVLGSARGVAYLHSQRILHRDLAVRNILLTEDKTPKVSDFGLAELTDRYEMKEHCKIPVRYLAPETLELFIFTPKTDVFSFGCVIWEIYENGQQPHDGKNAQTIRAQVKKREFLKLSSSAPEALRRLVAEKVFVADPENRCSMTSIVQCVETAEKTVK” belongs “soluble”; to “MRAVIPYKKAGAKSRLSPVLSLQEREEFVELMLNQVISSLKGAGIEQVDILSPSVYGLEEMTEARVLLDEKDLNEALNRYLKEAEEPVLIVMADLPLLSPEHIKEISSTEKDVCIVPGKGGGTNALFIKNPSKYRVKYYGSSFLTHCSIATDSGQDFEIYDSFMAGTDIDEPEDLVELLIHGKGAAKDYIESKFRLEVKKG”, “not soluble”. To “SRMRRYKSYFDWFDRQELHSMFQIAVPSVLQQSTVSIGMMIVQAVVNPFGTQALAGYAATMRVENVFSLIFVSIGNAVSPYVSQNLGANKPQRIKKGYRAA” belongs “not soluble”; to “MNDDKLRSLFASLATLTQQGPIPVQAYSMLAGQHSTEVLAEHMRLRWLSDGRFGPVAANILMHIHKSDPKDISLSSNVLALLLNDYRNRLSVRNDSRLMFRNCVKTLFSMYPVYVKMDECVSKCFIKPMFSSLDALIDDAPDTEDLETAGILLSENGRVLHDLNSYLVERIIVKLRHKLISEDPIVTKHVRQIFIHVYDLWAFGWSELNIPECLLTLSAEGKLSIVDQTPLRKNDISKQEFGSKESIV”, “not soluble”; to “MSLLSGGLSLNDKSWQALVFDYTNDGMGWPIGALASAEQILLAMSAQLVDTDFELSLLLPEGEGEEALFELADAVAEWINHFISGLGLSGANLKHASVEAKEALEDLEEMSKLGIDEEDDLAEQAELLEQVIEHIKVCVLVLHAEFGVKPEQDTKPTVHEGGSHHHHHH”, “soluble”.

These data come from the DeepSol protein solubility set.
